Assay results: US20220153875A1, “ANTIGEN-BINDING MOLECULE CONTAINING ANTIGEN-BINDING DOMAIN OF WHICH BINDING ACTIVITY TO ANTIGEN IS CHANGED DEPENDING ON MTA, AND LIBRARY FOR OBTAINING SAID ANTIGEN-BINDING DOMAIN” (Chugai Seiyaku Kabushiki Kaisha, priority 2019, published 2022)

Key:
[1] = Surface plasmon resonance: humanized MTA0303 and humanized MTA0330, binding to MTA; conditions: humanized antibodies; 25° C.; read-out: Affinity KD, MTA
From the text: (§1) […] (GE Healthcare) was used to analyze binding to MTA and MTA analogs (adenosine, SAH) to verify whether humanized MTA0303 and humanized MTA0330 specifically bind to MTA.
(§2) The antibody of interest was captured on Sensor Chip Protein A (GE healthcare) with protein A pre-immobilized, or on an immobilized surface prepared by binding onto Streptavidin-immobilized Sensor chip SA (GE Healthcare) the Capture Select Biotin Anti-IgG-Fc (Hu) (Thermo fisher scientific), which is a biotinylated anti-human IgG CH1 molecule, and interacted with MTA (Sigma-Aldrich), or adenosine (Wako), or S-(5′-adenosyl)-L-homocysteine, (SAH) (Sigma-Aldrich). 20 mM ACES-NaOH, 150 mM NaCl, 0.05% Tween20, 0.05% DMSO was used as the running buffer. MTA or adenosine or SAH was allowed to interact at a flow rate of 30 μL/min for 120 seconds and then dissociated in the running buffer. The interaction was measured at 25° C. and the same buffer as the running buffer was used to dilute MTA, or adenosine, or SAH.
(§3) The dissociation constant KD (M) was calculated based on the binding rate constant ka (1/Ms) and the dissociation rate constant kd (1/s), which are kinetic parameters calculated from the sensorgrams obtained by the measurement. Alternatively, the dissociation constant KD (M) was calculated using steady state analysis. Biacore 1200 Evaluation Software (GE Healthcare) was used to calculate each parameter.

[2] = Surface plasmon resonance: humanized MTA0303 and humanized MTA0330, binding to adenosine; conditions: humanized antibodies; 25° C.; read-out: Affinity KD, Adenosine
From the text: as §1, §2, §3

[3] = Surface plasmon resonance: humanized MTA0303 and humanized MTA0330, binding to SAH; conditions: humanized antibodies; 25° C.; read-out: Affinity KD, SAH
From the text: as §1, §2, §3

[4] = biological target: T1, hIL-6R (Homo sapiens, UniProt P08887); test: Surface plasmon resonance (Biacore T200): C03H-BH076N17/C03L-KT0 binding to hIL-6R under MTA or adenosine
T1 sequence (P08887 20-357): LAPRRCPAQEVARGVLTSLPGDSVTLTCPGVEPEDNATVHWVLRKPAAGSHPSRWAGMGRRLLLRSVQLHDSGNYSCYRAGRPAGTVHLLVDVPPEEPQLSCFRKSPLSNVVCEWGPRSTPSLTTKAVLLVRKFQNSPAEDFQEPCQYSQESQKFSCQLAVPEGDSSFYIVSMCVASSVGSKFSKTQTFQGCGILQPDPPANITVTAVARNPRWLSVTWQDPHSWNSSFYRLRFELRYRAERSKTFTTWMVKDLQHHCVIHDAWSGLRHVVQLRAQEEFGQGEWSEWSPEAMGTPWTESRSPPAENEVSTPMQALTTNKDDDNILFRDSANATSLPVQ
Experimental: Using Biacore T200 (GE Healthcare), the effects of MTA and adenosine on the antigen-antibody reaction between C03H-BH076N17/C03L-KT0 and hIL-6R were evaluated. TBS, 0.02% (w/v) Tween20, pH 7.4 was used as the running buffer. ProA/G (Pierce) was immobilized onto Sensor Chip CM5 (GE Healthcare) by amine coupling, and after the antibody was immobilized on it, various antigens were allowed to interact as analytes, to observe changes in the antigen-antibody binding amount. The running buffer and a buffer in which either MTA or adenosine was added to the running buffer were used for antigen dilution, which were prepared in a series of stepwise concentrations. Biacore T200 Evaluation Software (GE Healthcare) was used to calculate the parameters.

[5] = Biacore T200: rabbit B cell cloning antibodies, binding to MTA; conditions: Biacore T200, 25° C.; read-out: Affinity KD, MTA
Experimental: (§4) The antibody of interest was captured on Sensor Chip Protein A (GE healthcare) with protein A pre-immobilized, or on an immobilized surface prepared by binding onto Streptavidin-immobilized Sensor chip SA (GE Healthcare) the Capture Select Biotin Anti-IgG-Fc (Hu) (Thermo fisher scientific), which is a biotinylated anti-human IgG CH1 molecule, and interacted with MTA (Sigma-Aldrich) or MTA analogs. As MTA analogs, adenosine (Wako) (measured concentration in tumor tissue: 182 nM) and S-(5′-adenosyl)-L-homocysteine, (SAH) (Sigma-Aldrich) (measured concentration in tumor tissue: 30 nM) were selected based on the structural similarity to MTA and the concentration in tumor tissue of tumor-bearing mice of an MTAP-deficient cell line. 20 mM ACES-NaOH, 150 mM NaCl, 0.05% Tween20, 0.05% DMSO was used as the running buffer. MTA or adenosine or SAH was allowed to interact at a flow rate of 30 μL/min for 120 seconds and then dissociated in the running buffer. The interaction was measured at 25° C. and the same buffer as the running buffer was used to dilute MTA and its analogs.
(§5) The dissociation constant […]) (M) was calculated based on the binding rate constant ka (1/Ms) and the dissociation rate constant kd (1/s), which are kinetic parameters calculated from the sensorgrams obtained by the measurement. Alternatively, the dissociation constant KD (M) was calculated using steady state analysis. […]

[6] = Biacore T200: rabbit B cell cloning antibodies, binding to adenosine; conditions: Biacore T200, 25° C.; read-out: Affinity KD, Adenosine
Experimental: as §4, §5

[7] = Biacore T200: rabbit B cell cloning antibodies, binding to SAH; conditions: Biacore T200, 25° C.; read-out: Affinity KD, SAH
Experimental: as §4, §5

[8] = biological target: T1, hIL-6R; test: Biacore T200: hIL-6R binding amount at different MTA concentrations; conditions: MTA 0.1, 1, 10, 100 μM, 25° C.
Experimental: For the MTA-dependently binding anti-hIL-6R antibody cloned in Example (4-5) (6RS2T007H-F760mnN17/6RS2T007L-KT0), the change in the amount of antigen binding dependent on MTA concentration was assessed using Biacore T200 (GE Healthcare). The measurement was done at 25° C., using 20 mM ACES added with MTA at final concentrations of 0.1, 1, 10, and 100 μM, 150 mM NaCl, 0.05% (w/v) Tween20, pH 7.4 as the running buffer Series S Sensor Chip CM4 was used as the sensor chip, ProA/G was immobilized by amine coupling with the antibody mobilised on the top of that, after which hIL-6R was allowed to interact as an analyte to measure the change in binding amount between antigen-antibody. The running buffer was used to dilute the antigen.

[9] = Biacore T200: binding of humanized SMB0002 to MTA; conditions: 37° C.; read-out: Affinity KD, MTA
Experimental: (§6) CaptureSelect™ Biotin Anti-IgG-CH1 Conjugate (Thermo fisher scientific), which is a biotinylated anti-human IgG CH1 molecule, was bound to Sensor Chip SA (GE Healthcare) onto which streptavidin was immobilized in advance, then humanized SMB0002 was allowed to be captured, and MTA (Sigma-Aldrich) or adenosine (Wako) was allowed to interact with humanized SMB0002. 50 mM Tris-HCl, 150 mM NaCl (Takara, T903), 0.02% (w/v) Tween20, 5% DMSO was used as the running buffer. MTA or adenosine was allowed to interact with humanized SMB0002 for 42 seconds at a flow rate of 100 μL/min and then dissociated from the antibody in the running buffer. The interaction was measured at 37° C., and the same buffer as the running buffer was used to dilute MTA or adenosine.
as §3, with “T200” for “1200”

[10] = Biacore T200: binding of humanized SMB0002 to adenosine; conditions: 37° C.; read-out: Affinity KD, Adenosine
Experimental: as §6
as §3, with “T200” for “1200”

B1: HumanizedMTA0303 (antibody, V domains shown)
VH: QVQLVESGGGLVKPGGSLRLSCAASGFTFSSAYWMCWVRQAPGKGLEWVACIFASAIYAGSGGSTYYASWAKGRLTISKDTSKNQVVLTMTNMDPVDTATYYCATGYGSSGGGFDELWGQGTLVTVSS
VL: EIVLTQSPATLSLSPGERATLSCQSSESVYANRLSWYQQKPGQPPKLLIYSASTLPSGIPARFSGSGSGTDFTLTISRLEPEDFAVYYCAGLYSGNIPAFGQGTKVEIK
Kd [1]: 0.0108 µM
Kd [2]: 41.4 µM
Kd [3]: 211 µM

B2: C03H-BH076N17/C03L-KT0: antibody binding hIL-6R MTA-dependently; heavy chain variable region SEQ ID NO: 54, light chain variable region SEQ ID NO: 55 (antibody, V domains shown)
VH: QVQLVQSGAEVKKPGSSVKVSCKASGGTFSSYAISWVRQAPGQGLEWMGGIIPIFGTANYAQKFQGRVTITADESTSTAYMELSSLRSEDTAVYYCARFHVMSSFEIWGQGTLVTVSS
VL: DIQMTQSPSSLSASVGDRVTITCRASQSISSYLNWYQQKPGKAPKLLIYAASSLQSGVPSRFSGSGSGTDFTLTISSLQPEDFATYYCLQFNNDPLTFGGGTKVEIK
amount of binding to hIL-6R ([4]; different concentrations of MTA): showed stronger binding activity to hIL-6R as MTA concentration increased
amount of binding to hIL-6R ([4]; different concentrations of adenosine): no binding to hIL-6R was observed at any concentration

B3: MTA0330: anti-MTA antibody from rabbit B cell cloning; H-chain variable region SEQ ID NO: 48, L-chain SEQ ID NO: 49 (antibody, V domains shown)
VH: QEQLVESGGDLVTPGASLTLTCKASGFSFSSSYWMCWVRQAPGKGLEWIACIYSGDGSTYYASWVNGRFTISKTSSTTVTLQMTSLTAADTATYFCARENIFGSGALNLWGPGTLVTVSS
VL: QAVVTQTPSPVSAAVGGTVTISCHSSKSVYSNNRLAWYQQKPGQPPKLLIYQASTLASGVASRFSGSGSGTQFTLTISGVQCDDAATYYCQGTYYSSGFYFAFGGGTEVVVK
Kd [5]: 0.0144 µM
Kd [6]: 63.5 µM
Kd [7]: 187 µM

B4: 6RS2T007H-F760mnN17/6RS2T007L-KT0: MTA-dependent anti-hIL-6R antibody; H-chain variable region SEQ ID NO: 57, L-chain variable region SEQ ID NO: 58 (antibody, V domains shown)
VH: QVQLVQSGAEVKKPGASVKVSCKVSNIVLMQHTYGWVRQPPGKGLEWIGIIGGDGHAWYPRWVKGRFTISKDNSKNQVVLTMTNMDPVDTATYYCARGGKDGFTNAWDPWGQGTLVTVSS
VL: DIQLTQSPSSLSASVGDRVTITCQSSQSVFNNNGLSWYQQKPGQPPKLLIYDASTLASGVPSRFSGSGSGTDFTLTINSLEAEDAATYYCHGSQATQIWWDNAFGGGTEVVVK
amount of antigen (hIL-6R) binding [8]: changes stepwise according to the MTA concentration

B5: Humanized SMB0002: adenosine-binding antibody, library template; heavy chain variable region SEQ ID NO: 31, light chain variable region SEQ ID NO: 32 (antibody, V domains shown)
VH: QVQLVQSGAEVKKPGASVKVSCKVSGIDLTNYAMGWVRQPPGKGLEWIGIIGADSSTWYPSWVKGRFTISKDTSKNQVVLTMTNMDPVDTATYYCARGRFVGYTNAFDPWGQGTLVTVSS
VL: DIQLTQSPSSLSASVGDRVTITCQSSQSVWNNNYLSWYQQKPGQPPKLLIYDASTLASGVPSRFSGSGSGTDFTLTINSLEAEDAATYYCHGSYANSGWYDNAFGGGTEVVVK
Kd [9]: 3.8 µM
Kd [10]: 0.064 µM

B6: HumanizedMTA0330 (antibody, V domains shown)
VH: QVQLVESGGGLVQPGGSLRLSCSASGFTFSSSYWMCWVRQAPGKGLEWVGCIYSGDGSTYYASWVNGRLTISKDTSKSQVVLTMTNMDPVDTATYYCARENIFGSGALNLWGQGTLVTVSS
VL: DIQVTQSPSSLSASVGDRVTITCHSSKSVYSNNRLAWYQQKPGQPPKLLIYQASTLASGVPSRFSGSGSGTEFTLTISSLQPDDFATYYCQGTYYSSGFYFAFGQGTKVEIK
Kd [1]: 0.00888 µM
Kd [2]: 44.8 µM
Kd [3]: 84.7 µM

B7: MTA0303: anti-MTA antibody from rabbit B cell cloning; H-chain variable region SEQ ID NO: 46, L-chain SEQ ID NO: 47 (antibody, V domains shown)
VH: QSLEESGGDLVKPGASLTLTCTASGFSFSSAYWMCWVRQAPGKGLEWTACIFASAIYAGSGGSTYYASWAKGRFTISKTSSTTVTLQMTSLTAADTATYFCATGYGSSGGGFDELWGPGTLVTVSS
VL: AQVLTQTASSVSAAVGGTVTISCQSSESVYANRLSWYQQKPGQPPKLLIYSASTLPSGVPSRFKGSGSGTQFTLTISDLECDDVGTYYCAGLYSGNIPAFGGGTEVVVK
Kd [5]: 0.00246 µM
Kd [6]: 11.4 µM
Kd [7]: 119 µM
